Laboratory results published in patent US7910549 (INSTITUTE OF VIROLOGY OF THE SLOVAK ACADEMY OF SCIENCES, dated 2011).
Where no end group is shown, it is not given here.

B1: oligopeptide … (aa 75-98) [SEQ ID NO: 106] (peptide)
peptide: EDPPGEEDLPGEEDLPGEEDLPEV

Legend:
[1] = molecular target: B1; assay: phage display (Ph.D.-7): panning on immobilized peptide SEQ ID NO: 106, elution with M75, 5 cycles
[2] = molecular target: T1, GST-MN fusion protein (MN glutathione S-transferase), expressed in bacteria from pGEX-3X-MN (human, UniProt Q16790 38-459); assay: competition ELISA on immobilized GST-MN; competitor M75
[3] = molecular target: T1, GST-MN fusion protein (MN glutathione …); assay: phage display panning on GST-MN, elution with acetazolamide
[4] = molecular target: T1, GST-MN fusion protein (MN glutathione …); assay: phage display (Ph.D.-7): panning on wells coated with GST-MN, elution by acetazolamide, 3 rounds
[5] = molecular target: T2, monoclonal antibody M75 (MAb M75), secreted by hybridoma VU-M75, ATCC HB 11128; assay: competition ELISA (peptide against immobilized GST-MN for M75)
T2 construct: Mouse IgG; used as ascites fluid in the ELISA and in the cell adhesion tests; also called MAb 75

| Binder | binding result [1] | binding result [2] | other results |
| --- | --- | --- | --- |
| KKMKRRK | binds | – | – |
| ASASAPVSA-NH2 (Synthetic; phage-selected heptapeptide with alanine added on both sides) [nonapeptide ASASAPVSA [SEQ ID NO: 139]] | – | binds | – |
| AITFNAQYA-NH2 (Synthetic; phage-selected heptapeptide with alanine added on both sides) [nonapeptide AITFNAQYA [SEQ ID NO: 138]] | – | binds | – |
| GQTRSPL [phage-displayed heptapeptide GQTRSPL (SEQ ID NO: 109)] | – | – | binding result [3]: binds |
| SASAPVS | binds | – | – |
| GETRAPL [phage-displayed heptapeptide GETRAPL (SEQ ID NO: 107)] | – | – | binding result [4]: binds |
| GETREPL [phage-displayed heptapeptide GETREPL (SEQ ID NO: 108)] | – | – | binding result [4]: binds |
| ITFNAQY | binds | – | – |
| B1 | – | – | IC50 [5]: 1 ng/mL |
| AKKMKRRKA-NH2 (Synthetic; phage-selected heptapeptide with alanine added on both sides) [nonapeptide AKKMKRRKA [SEQ ID NO: 137]] | – | binds | – |
